The NTF2 design screens of Basanta et al. (2020)

Assay: protease stability score; higher = more stable; yeast display proteolysis, trypsin and chymotrypsin;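 note: log10 excess protease needed over predicted unfolded state with 0 meaning unfolded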

Sequence | protease stability score
DETAQKVANQFFEALKNGDPDQVRRLLDKNATVRIGEWQVHGREQASKDVHQNKQHAEYDWRIRSVKVTGNKVDIDAEVTYQHNGEPSRRQMVVNVVVTNGKIQDIHVRDEQ | 1.43
DETAQNLIKELNRAWNENNENQVAELMDPNAKLQIGNKVLTGRKQRMEEIRSQTHSMRLDYKYEDVKAKNGKVTANLRYVADVNGRPVDVTVSVKADVHNGVIVRLEVRLPPDVEEELKR | 0.219
DETARDRLEELWRTMERNDPDKLTRQADKDVEVHVGDKELHGMKQVATTLAHEMREMDVEIEIREVNVQGNNVEVDMIFRAKVNGKPIHNKASFVVTFNNGKAESIELRVPPEFQKQKRK | -0.222
DETARHRLEEMWTNIQRNNPSEVAKLADKDVRVRVGDKEIHGREQLNHHIKRFNDEIRMNVDHISIKVDGNEADIHIRAEFEVNGTPFEMTIDVKISVHNGKIKEIDRQVSEEEKRRLKK | 0.806
DETASRAAERYMKALQTGDPDEVVKQIDPNVHVRVGDKEVQGKEQFRKKQERDKKQARYHIKHVTFNVEGDKVRVDVIFRKHHNGQPRHDRMEQRMSVRGDKITHQENHKTG | 0.02
DETATEAAQRMMDNWRTNSPEDYAKLADKNVEVRVGDKTYTGRDELRSRLQRKREEQHIDLRTYHFRVNGDEVTVRARYIENHNGRPQHKVVRFVFRLHNGRVKEIERHDDS | 0.22
DETAVEIARDFLQAITNNNPQEAERLADPNVRWTVGDKSYSGMNEFSKIIKDLNDRSRFEYTDVKLDVTNGRARIELRMSRTVNGKPQSFDMVMNVVVHNGRIKHVHVHNKQ | 1.4
DETAVHAARRYLHAVTEGDPDKVNEQVDPNAKLTYGDKEVHGSSQVKEEVETQNRHSRIQYDSVTFDHQGDKVRADIDMKQDSNGRPKRRKMVVDFRAHNGKLQHVNAQDDN | -0.224
DETAVKVIHKVVEAINTNNPKQVMKNMDKDVHITVGDKEYEGKEEFAKQVERDLREQRVDIDIKRLNVHNGKVHVKFTAQQQINGKPISYKATARAEVQNGKVQHMEIRVPEELQRKRES | -0.272
DETAVRVFRKIEDAYQKGDPDKITNLLDENVEMHVGDKRVHGRETMAEHLKKQLDEIRQKIKSVTLHDKGDTIRIDVLMVEEHNGQPRESRYHVHAKIHNGKMKEREQTSVQ | -0.095
DETAVTVLTEIVKAQRQGDHNRFNELVDPNAKIRVGDKRVTGREQLTHEFHKNLKHMRVHQKVHDMKDHNGRVQATAQRRSNHNGKPKEVEVQFQATARNGRLTQMEMHSSG | -0.643
DETDKAHEFMRKMKRALDQNDPDKLMDLFDPNAKVKVGEKKIHGRERISNDLQRHAHNADHIHMEIQDMKVSGDKINITFRVTSVVNGNTRSNRVLIRARIDNGHIKAVDVQQK | 0.855
DETDKAQKQFEHYERIAHTGDPDEMQRQADENARVEYGDKEVRGRKDVKKWAKDIKDTVDSVEFDIKSFEVQGDKITINVNIVYRSDGRQQSMEVNMVFDVRGDDIQIRSMKFR | 0.434
DETDLEKFATIVQQNNPHEFKKLLPEDAKMTYGDKTVHGREEIQRILENLVKDVDRLRIKHYKISGDKIEIDLVVNVNGRNIRFSLRAKMHNGQIKFFEIEVRDDDVKHELEKMLS | 0.069
DETDLERWARTFIEVFQTGDENRFRKMVDPNARLNVGEKNVHGKEEMAKAAKKLRDKVDHMHVRDLQINPPTIEIHIDFHHNGQKRSQVYYVEMHNGRVTEIHVQTS | 1.05
DETDLLRKLIHHLKTAVDEGDPDKYVKNFDPNAKIDVGDKQWHGHDEIRKKMEDLVRQADHVRLTIDHMQVQGDKFNIHATIKYDNNGEDVERKFVLTATKKGDKAKAEFVTEQ | 0.895
DETDQVETLLKRFKEAVDHGDKHQARHLFRDDVRIKYGDKEIHGRDNLAHWIVDRARRADHVDFTIRQFDVRNGRVSVDVEVRYDVNGKHDHKRYTLRADLRNGRATAVTIEVR | 0.344
DETDTAKDFAEELRTIFESNDFKRYQQLFDPNAKIHVGEKRLHGDRRVNNLIKEIFDRADHLHFDLREFEVKGEKVRIRYVEKQKINGKDETRDVVMVAVKQGDKMYITEVRHQ | 1.13
DETEAKKNVEVVEQNDWDTFEDQVDENAKMKVGDKEIHGREQFSEFADNMKKNADHVEVKSVDRRGDEINIEMVVSVNGKRVTYVVQFVVNNGKIHDVQFDARSEDDERFLKEVQS | 0.619
DETEDKKAQQLAKAINDGDEHDVRKMMDKDVKVDVGDKQLHGREQAAKWMSRHRREQRRTIEVTDVKMHGEKAELDANLRVDVNGQPRTHRVRIIVSITNGRLQHLEIHMDPRFEQSVQS | -0.25
DETEEVQKLVHRWRQAMEDGNPDDLRKNMDEDAEMRYGDKSWHGRENIAQNLHKERQRADSISITIEDMDHENGKAVVHLNITFTVNGRKETKRYDLDVEVNGDKLKIKQIQQE | 0.247
DETEHAKRLAEEFVRNVETGDESRLVELADPNAKFEVGDTTVHGMEDYAHNMHKRRNEADHFDFKVKSVHVSNGNIRVDIDYRVNHNGKVEKQRMVIYMTKHGDKYRIKKIEVS | -0.082
DETEIRLFHQFLRAIETNDEERAQQLADEDARYRYGNKEIDGMTQFQEDMDDKHKEARYSYSIDSVHDEPNRVVVEARAMVKINGKPTTYQVELHAHFHNGRMKKFTASVPEETLQSIRS | 0.054
DETEKADQMVHDLEEAIKTGDPDEISNQADPNVSFHYGDKTFHGREKLAEWFLELQKRVDHMHLDIKDIEVQGDKATITMQMVLDKNGDDERKDIRVEAQYHNGRLTISFAEAR | 2.15
DETEKAKRFFDEWLKALHRGDPDEVKKLADPNVRFEVGDKEIHGRSNMAKHVTDLRKRADSFSASIDSIDIKGEKVVIDAKLTYNHNGRKTHNKVEFDAKVHNGKIKLKEIIVR | -0.257

Sequence | protease stability score
DETEKAKTFMDELRKVLQTGDEEQISRNMDPNARLNVGDKTIHGRERLAKEMSDEVKRADHIDIKVKSISVHNGKVRVDFFFTLEYNGQHRRTRRIMHADISDGQIKIKQIHDN | 1.4
DETELRKMQEVQEHNDPDEWKKQADKDVRLKVGNKRLHGREDVHRYLKTHRDQADHIRYKSFDFDGDKADITFHAVVNGRTFEANQEIRIHNGRIQEVNIHYTDDQVQRELEELFG | -0.195
DETEQAKKLLNDIENIFRTGDPKQLEKLAPPDVDVRVGDKEVHGKEQVVEELQRRQESFDHIEFNLHRVSVSGDKYRLDYEVRFDHNGRTETYRVVVVYVNNNGRLQDKSMTIK | 0.684
DETETMEQMIQDLHRALQQGDHETVKELIPPDAEMQIGDKTWHGKEQVARHLVEHAQTADHIDIDIKSIKIEGNKLVVNLKVVYDRNGHRETQTYELMVDVNNGEFRIVEQRQP | 0.921
DETEVAHRFLNQERRNWKTGNRQSFENMFRDNVRAQYGDKTVTGREDMKRWLDRILKEVDHVRIEIKDLKREPGRVSLDVVVVFEHNGHKDKKRYVIDAVASGDKMIIDQVQDK | 0.165
DETEWREFAEEFIRLFQQGDEDRLRKLIDKNAKIRYGDREVDGRDSIAKQIRDNREQIDRIDLVDMKVRGEHITITIDVDHNGQRRRIVIHINVHNGHIKNVEVDSG | 1.02
DETHDAHRKAEEIITALRTGDPKQAESLVPENVKIDVGDKTIHGKEQYSKEFKKFTDRVDKVEVRIKHVHVQGDKIKIRMEARENVDGQDKRYQFVLIFDRHNGKDQAVSIKVD | 1.02
DETHKAKEMLKEFHTAVSKGDEDRYSNLLDENVHITYGDKTVHGREEAVKLFTELQERADHVDVDVVSVDVKGETVKARIRINFVYDGREDRHEFTLIAIVDNGRFVIKSIIQK | 1.22
DETHLKLLEHFFKQWMTGNQQELRSLADPNVEYVYGEHRVRGREQMAKDLVRELHEMTISMRSVTSDIRGDQAVVTVNFQQDKNGEPDEVNVKMRAEVHNGRIKSMNAKFHQ | -0.287
DETIHDQAQRFFRDVQTGDEENIHKYFDPNARFVVGDKDLHGMSEVAEDLARKWNEWRVDVRDYRIKVHNGRIEVHIDARFDHDGQPEDRSEVVVYTMKNGQVQMVEFHKQG | 0.464
DETKAAQVAAELISAIVHGDTDRALELADKDVRADIGENKVHGREEMHKMVEQYDKSVDHASVKTYKVSGNSVKVNVEVTHNGRKRTVDFTAEAHNGKAKQVTAEVK | -0.768
DETKDTEAAERYLENFKTGDPKKLANQFDKNAKVVVGDNEIHGREELQRNNESFVKRVDHIDLQTVDMRGDKFRYQVVIKINGNSVIVNYSIVMHNGKFERNHVDPKDMDRLKQ | 0.363
DETKLMTELAEKLNRVIQKNNPDEARKLMDPNARQQVGDTRYHGNEQLAEYMKDMHERYDHVEVDVKDVNVSGDHATLEAKVHFRHNGKNTTINQNIVATIHNGKVVLKQVTSK | 0.465
DETKQAERVAETEKRIWERGDPDKLNEMFDPNVRIDVGDKEVNGREKLKEYIERILTQVDHVRLNFTSISVHNGSVELKYTLVREDNGRRRRDTFVIHMELHNGQARVTSVRRG | 0.405
DETKQQELIHRLLEALETGNPDEYIKNLDKDVRVVVGDTEVHGREDLKKLFERLTHQIDHQHIKDYKVSNGQADVKLVVVNNGQERRLTIKIVVRNGHVKEVVWNDR | 1.77
DETKVKKLAETVIKILFSGDKKTAKDLLKPNVKFEALDVELHGPDQVRKYYDKVKKHGAEMHVQRNEVKGNTAEVEYVLKVGGTEIKVKATLYVKDEKVDKAEVNNSEEYKKYVQKG | -0.018
DETKVKKLVVHVAQVLMSGQVDEAQKFLNPDVEFHAGNVTLHGPEQVLEYYKKIQKRGVEFHVKEAEVHGNTVEVKYDVKFDGTEQTLKFKAEVKDTVVEKAELEIDEDYVRAVQKG | 1.11
DETLFELIQRLIEAYKHGNPDELKKQADPNARVKVGDKELHGMEEIAKELVTQRKQQRLSYLSINNDDDPNHARVRFNVEVERNGQPRTKRFELRAETHNGRLISMEVQSRR | 0.232
DETNERVARTMLEVRQHNNPDDLRKMLDPNVKVVIGDKEVHGREDYINKFEERVKHIRVDVKVDHIDSQGNRLDIDVTFTMNVNGQPVKDRMRFVIQITNGKIEEVDVSVPEEELKKQEK | 0.909
DETNKEQFDRLLKHQKTGNPQEVVKNADPNVKMRIGNKTWHGRENINQDVERRRRKMRIDINVKSVDSHGEELRIDARVQYNINGKPLEDDVVIIAEVHNGKFKHIEVRIPERMQKKLER | 0.637
DETNKKAVEDYIKALETGDDEMAKRLMDKNATVEIGDKEVTGREEIHEQFKRDVKEIRVRIDRVHVKDQGDKVNLRAREKQTVNGHPISFEFQVEFHAHNGKIKHVEWQIDKDQLRKLKG | 0.119
DETNLKKVLDVLKDNDEKKLEELADEDAKNDIGNFDYRGRRQFEEAMRHRRKMIDSLEVKSVRADGDKAEIDMSAVINGREVKASQMVKVHNGRIKSISVRFTDPDKEREADKKAQ | 0.023
DETNRKQASRVLENLQTGDPRQVSELVDPNARVTVGDKQVTGRENIMQRVKHELDQSRIQIDHYEIDDKGESADLRMTQQVDHNGNPTRTKYQVEVEAENGKIKEITIEERS | -0.271
DETNVKNAEEWLRALQDNNSEQLRKLMDKDVRVEIGDDVIKGREDVVTNLIRKARELRFRIKVDKIEDDNGKVVVHAEATFTHNGKPDRVEVELVFSLDNGKIKEVVVKTDG | 1.69
DETNVRSVERFVHALKQGDPDKLHRNADPNVKVQIGDKVIHGREELSKDQKRRNKSMRLSYKDYRNEDTNGNVIVHLTFTSERDGQPRENEYRAHITLNNGKIREVDMKSDG | -0.288
